From doi:10.1101/2025.06.03.657256 (bioRxiv, 2025)

What was measured:
thioflavin T = biological target: the molecule itself; experiment: thioflavin T
[1] = biological target: the molecule itself; experiment: negative-stain EM of fibrils

Protein	binding result (thioflavin T)	binding result [1]
SKTVLTGTKDTVCSGVTGAMNVAKGTIQTGVDT (peptide, UniProt Q96Q06 260-292, looked up) [1mer[260:]]	binds	
PLIN4-4mer[326:] (domain or fragment, human, UniProt Q96Q06 326-457, looked up) SKTVLTGTKDTVCSGVTGAMNVAKGTIQTGVDTTKTVLTGTKNTVCSGVTGAVNLAKEAIQGGLDTTKSMVMGTKDTMSTGLTGAANVAKGAMQTGLNTTQNIATGTKDTVCSGVTGAMNLARGTIQTGVDT	binds	
PLIN4-20mer (domain or fragment, human, UniProt Q96Q06 260-919, looked up) SKTVLTGTKDTVCSGVTGAMNVAKGTIQTGVDTSKTVLTGTKDTVCSGVTGAMNVAKGTIQTGVDTSKTVLTGTKDTVCSGVTGAMNVAKGTIQTGVDTTKTVLTGTKNTVCSGVTGAVNLAKEAIQGGLDTTKSMVMGTKDTMSTGLTGAANVAKGAMQTGLNTTQNIATGTKDTVCSGVTGAMNLARGTIQTGVDTTKIVLTGTKDTVCSGVTGAANVAKGAVQGGLDTTKSVLTGTKDAVSTGLTGAVNVAKGTVQTGVDTTKTVLTGTKDTVCSGVTSAVNVAKGAVQGGLDTTKSVVIGTKDTMSTGLTGAANVAKGAVQTGVDTAKTVLTGTKDTVTTGLVGAVNVAKGTVQTGMDTTKTVLTGTKDTIYSGVTSAVNVAKGAVQTGLKTTQNIATGTKNTFGSGVTSAVNVAKGAAQTGVDTAKTVLTGTKDTVTTGLMGAVNVAKGTVQTSVDTTKTVLTGTKDTVCSGVTGAANVAKGAIQGGLDTTKSVLTGTKDAVSTGLTGAVKLAKGTVQTGMDTTKTVLTGTKDAVCSGVTGAANVAKGAVQMGVDTAKTVLTGTKDTVCSGVTGAANVAKGAVQTGLKTTQNIATGTKNTLGSGVTGAAKVAKGAVQGGLDTTKSVLTGTKDAVSTGLTGAVNLAKGTVQTGVDT		binds
4x1mer[260:] released from MBP-4x1mer[260:] by TEV protease (domain or fragment, human, UniProt Q96Q06 260-292, looked up) SKTVLTGTKDTVCSGVTGAMNVAKGTIQTGVDTSKTVLTGTKDTVCSGVTGAMNVAKGTIQTGVDTSKTVLTGTKDTVCSGVTGAMNVAKGTIQTGVDTSKTVLTGTKDTVCSGVTGAMNVAKGTIQTGVDT	binds	
PLIN4-4mer[557:] (domain or fragment, human, UniProt Q96Q06 557-688, looked up) TKSVVIGTKDTMSTGLTGAANVAKGAVQTGVDTAKTVLTGTKDTVTTGLVGAVNVAKGTVQTGMDTTKTVLTGTKDTIYSGVTSAVNVAKGAVQTGLKTTQNIATGTKNTFGSGVTSAVNVAKGAAQTGVDT	binds	
PLIN4-4mer[689:] (domain or fragment, human, UniProt Q96Q06 689-820, looked up) AKTVLTGTKDTVTTGLMGAVNVAKGTVQTSVDTTKTVLTGTKDTVCSGVTGAANVAKGAIQGGLDTTKSVLTGTKDAVSTGLTGAVKLAKGTVQTGMDTTKTVLTGTKDAVCSGVTGAANVAKGAVQMGVDT	binds	
